Measurements from PMC4388636.

Tests used:
[1] = target: toll like receptor-4 (human (endogenous in monocytes)) (UniProt O00206)
[2] = target: toll like receptor-4 (human (endogenous in monocytes)) (UniProt O00206); remark: listed apart in the source
[3] = target: toll like receptor-4 (human (endogenous in monocytes)) (UniProt O00206); remark: listed apart in the source
[4] = target: toll like receptor-4 (human (endogenous in monocytes)) (UniProt O00206); remark: listed apart in the source

UniProt O00206, sequence (O00206 24-839): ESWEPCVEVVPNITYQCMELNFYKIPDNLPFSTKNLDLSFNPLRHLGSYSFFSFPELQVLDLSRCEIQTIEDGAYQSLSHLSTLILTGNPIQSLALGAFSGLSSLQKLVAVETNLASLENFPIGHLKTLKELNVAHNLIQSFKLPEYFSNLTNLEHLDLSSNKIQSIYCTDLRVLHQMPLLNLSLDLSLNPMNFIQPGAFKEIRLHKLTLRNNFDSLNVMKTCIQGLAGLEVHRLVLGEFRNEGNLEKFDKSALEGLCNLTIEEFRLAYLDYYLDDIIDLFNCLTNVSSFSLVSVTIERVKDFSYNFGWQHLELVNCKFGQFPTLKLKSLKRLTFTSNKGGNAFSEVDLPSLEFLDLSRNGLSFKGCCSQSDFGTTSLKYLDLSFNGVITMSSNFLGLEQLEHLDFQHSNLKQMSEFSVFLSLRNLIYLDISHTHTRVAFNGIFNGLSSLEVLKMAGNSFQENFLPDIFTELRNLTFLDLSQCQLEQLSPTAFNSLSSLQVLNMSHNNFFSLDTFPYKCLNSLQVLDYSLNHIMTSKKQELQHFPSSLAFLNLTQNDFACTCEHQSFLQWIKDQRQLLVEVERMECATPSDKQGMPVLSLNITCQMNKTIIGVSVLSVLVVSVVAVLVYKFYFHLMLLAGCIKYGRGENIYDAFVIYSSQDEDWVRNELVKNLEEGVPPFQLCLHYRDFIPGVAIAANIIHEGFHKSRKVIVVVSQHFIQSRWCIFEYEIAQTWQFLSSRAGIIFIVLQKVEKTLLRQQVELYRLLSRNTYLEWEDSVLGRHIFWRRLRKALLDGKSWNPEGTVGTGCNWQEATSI

B1: recombinant Wolbachia heat shock protein 60 (natural protein)
chain: MTNVVVSGEQLQEAFREVAVMVDSTVAITAGPRGKTVGINKPYGAPEITKDGYKVMKGIKPEKPLHAAITSIFAQSCFQCNDKVGDGTTTCSILTSNMIMEALKSIAAGNDRVSIKNGMQKAKDAVLEGITSMSRTIPLEKMDEVAQVAIISANGDKDIGNSIADAVKKVGKEGVITVEESKGSKELEVELTTGMQFDRGYLSPYFITSNEKMIVEFDDPYLLITEKKLSIIQPLLPILEAVVKSGKPLLIIAEDIEGEALSTLVINKLRGGLKVTAVKAPGFGDRRKEMLEDIAALTGAKYVIKDELGIKMEDLTLEDLGTAKNVKVTKDNTTIVSGSSDSDRVKARVEQIKSQIETSTSDYDKEKLRERLAKLSGGVAVLKVGGVTEVEVKERRDRVEDALHATRAAIEEGIVPGGGVALLYASSALDKLKGGSDEEQIGINIIKKVLSAPIKRLVKNAGLESAVIIDHLTKQNDKELIYNVEAMNYANAFTAGVIDPAKVVRIAFETAISVASVLITTESMIVDVPNKEENASSSMGAGGMGGMNGF
[1]
  ROS levels in monocytes after rWmhsp60, fluorimetry with DCF2-DA, fold change: 3 fold
  loss of mitochondrial membrane potential in monocytes after rWmhsp60, fluorimetry with TMRE, fold change: 3 fold
[2]
  dead monocytes (annexin-V-FITC-/PI+) after 24 h with rWmhsp60: 23%
  dead monocytes after rWmhsp60, with pretreatment by anti-TLR-4 monoclonal antibodies for 2 h: 6.5%
  late apoptotic monocytes (annexin-V-FITC+/PI+) after 24 h with rWmhsp60: 18%
  late apoptotic monocytes after rWmhsp60, with pretreatment by anti-TLR-4 monoclonal antibodies for 2 h: 6%
[3]
  dead monocytes after rWmhsp60, with rapamycin treatment before the stimulation: 7.5%
  late apoptotic monocytes after rWmhsp60, with rapamycin treatment before the stimulation: 6.5%
[4]
  SA-β-Gal–positive (senescent) monocytes after rWmhsp60: 78%
  SA-β-Gal–positive (senescent) monocytes after rWmhsp60, with rapamycin pretreatment: 10%
